Earlier results on two substances are cited in paper PMC5529358.

In series [1] the target is insulin receptor isoform A isoform A (Homo sapiens) (UniProt P06213).
For series [2], the target named is insulin receptor isoform B isoform B (Homo sapiens) (UniProt P06213).

Chain of insulin (P01308 90-110): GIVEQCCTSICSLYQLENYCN

Regarding IGF-1 (from UniProt P05019), the Kd in series [1] was 0.12 µM.

In the case of insulin (from UniProt P01308), the dissociation constant (Kd) in series [2] was 0.0014 µM.

The term Kd denotes the equilibrium constant for the complex coming apart.
